B1: Eukaryotic translation initiation factor 5 (Saccharomyces cerevisiae), P38431 (parent)
chain: MSINICRDNHDPFYRYKMPPIQAKVEGRGNGIKTAVLNVADISHALNRPAPYIVKYFGFELGAQTSISVDKDRYLVNGVHEPAKLQDVLDGFINKFVLCGSCKNPETEIIITKDNDLVRDCKACGKRTPMDLRHKLSSFILKNPPDSVSGSKKKKKAATASANVRGGGLSISDIAQGKSQNAPSDGTGSSTPQHHDEDEDELSRQIKAAASTLEDIEVKDDEWAVDMSEEAIRARAKELEVNSELTQLDEYGEWILEQAGEDKENLPSDVELYKKAAELDVLNDPKIGCVLAQCLFDEDIVNEIAEHNAFFTKILVTPEYEKNFMGGIERFLGLEHKDLIPLLPKILVQLYNNDIISEEEIMRFGTKSSKKFVPKEVSKKVRRAAKPFITWLETAESDDDEEDDE
partner: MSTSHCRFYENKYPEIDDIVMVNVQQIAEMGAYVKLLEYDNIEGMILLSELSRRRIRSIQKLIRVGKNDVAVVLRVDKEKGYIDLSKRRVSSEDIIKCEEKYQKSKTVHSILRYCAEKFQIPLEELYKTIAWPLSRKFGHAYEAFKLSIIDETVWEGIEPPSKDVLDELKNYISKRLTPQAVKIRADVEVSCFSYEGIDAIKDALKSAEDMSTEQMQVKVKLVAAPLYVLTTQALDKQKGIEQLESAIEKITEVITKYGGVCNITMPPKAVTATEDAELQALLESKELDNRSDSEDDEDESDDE
B2: Eukaryotic translation initiation factor 5 (Saccharomyces cerevisiae), P38431 (parent)
chain: B1 chain

Variants of: B1
Conditions: with if2a_yeast SUI2, P20459

Question: How did the “effect of a mutation on the interaction” value turn out when MSINICRDNHDPFYRYKMPPIQAKVEGRGNGIKTAVLNVADISHALNRPAPYIVKYFGFELGAQTSISVDKDRYLVNGVHEPAKLQDVLDGFINKFVLCGSCKNPETEIIITKDNDLVRDCKACGKRTPMDLRHKLSSFILKNPPDSVSGSKKKKKAATASANVRGGGLSISDIAQGKSQNAPSDGTGSSTPQHHDEDEDELSRQIKAAASTLEDIEVKDDEWAVDMSEEAIRARAKELEVNSELTQLDEYGEWILEQAGEDKENLPSDVELYKKAAELDVLNDPKIGCVLAQCLFDEDIVNEIAEHNAFFTKILVTPEYEKNFMGGIERFLGLEHKDLIPLLPKILVQLYNNDIISEEEIMRFGTKSSKKFVPKEVSKKVRRAAKPFITFLETAESDDDEEDDE [W391F] was run?
Answer: Its value is “decreasing interaction”.

Variants of: B2
Conditions: with if2g_yeast GCD11, P32481
if2g_yeast GCD11, P32481, sequence (P32481 whole entry): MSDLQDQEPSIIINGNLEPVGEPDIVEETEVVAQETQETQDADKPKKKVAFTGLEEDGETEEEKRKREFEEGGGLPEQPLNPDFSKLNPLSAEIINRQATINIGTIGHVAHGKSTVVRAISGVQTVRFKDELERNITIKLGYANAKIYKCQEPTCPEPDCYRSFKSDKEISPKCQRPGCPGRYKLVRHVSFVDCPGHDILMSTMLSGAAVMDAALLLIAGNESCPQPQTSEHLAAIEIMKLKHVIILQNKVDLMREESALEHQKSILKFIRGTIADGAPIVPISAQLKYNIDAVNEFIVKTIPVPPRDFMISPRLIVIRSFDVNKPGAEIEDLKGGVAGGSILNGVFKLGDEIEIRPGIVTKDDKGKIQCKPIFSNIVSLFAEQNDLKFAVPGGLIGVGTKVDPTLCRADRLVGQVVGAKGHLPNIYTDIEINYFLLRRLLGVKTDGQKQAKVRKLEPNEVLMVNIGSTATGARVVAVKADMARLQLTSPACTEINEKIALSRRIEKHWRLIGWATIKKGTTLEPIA

Question: With MSINICRDNHDPFYRYKMPPIQAKVEGRGNGIKTAVLNVADISHALNRPAPYIVKYFGFELGAQTSISVDKDRYLVNGVHEPAKLQDVLDGFINKFVLCGSCKNPETEIIITKDNDLVRDCKACGKRTPMDLRHKLSSFILKNPPDSVSGSKKKKKAATASANVRGGGLSISDIAQGKSQNAPSDGTGSSTPQHHDEDEDELSRQIKAAASTLEDIEVKDDEWAVDMSEEAIRARAKELEVNSELTQLDEYGEWILEQAGEDKENLPSDVELYKKAAELDVLNDPKIGCVLAQCLFDEDIVNEIAEHNAFFTKILVTPEYEKNFMGGIERFLGLEHKDLIPLLPKILVQLYNNDIISEEEIMRFGTKSSKKFVPKEVSKKVRRAAKPFITFLETAESDDDEEDDE [W391F] as the variant, how does the “effect of a mutation on the interaction” value read?
Answer: Its value is “decreasing interaction”.
